The record followed here is patent US20170137467A1 (CHROMOTEK, published 2017).

Assay in all cases: pepscan: 15-mer peptide on OVA-microspheres, biotinylated BC2-Nb, streptavidin-PE
One assay addresses T1, AMEPDRKAAVSHWQQ (also: coupled via added N-terminal Cys to OVA-microspheres).
T1 construct: also called β-catenin peptide Start 13 End 27
T1 peptide: CAMEPDRKAAVSHWQQ
The text has this: (§1) As negative controls, microspheres comprising Ovalbumin and the Myc-peptide ([…]) covalently coupled to OVA-microspheres were used. […] Evaluation of the PE-signals were done in a Flexmap 3D (Luminex).

In another assay the target is T2, β-catenin peptide 1-15 (human, UniProt P35222).
T2 construct: synthetic 15-mer; additional N-terminal cysteine for coupling; also called Start 1 End 15
T2 peptide (looked up): MATQADLMELDMAME
Source text: as §1

Another assay deals with T3, β-catenin peptide 5-19 (human, UniProt P35222).
T3 construct: synthetic 15-mer; additional N-terminal cysteine for coupling; also called Start 5 End 19
T3 peptide (looked up): ADLMELDMAMEPDRK
Source text: as §1

For the next assay, the target named is T4, β-catenin peptide 9-23 (human, UniProt P35222).
T4 construct: synthetic 15-mer; additional N-terminal cysteine for coupling; also called Start 9 End 23
T4 peptide (looked up): ELDMAMEPDRKAAVS
Source text: as §1

The next assay has as its target T5, β-catenin peptide 21-35 (human, UniProt P35222).
T5 construct: synthetic 15-mer; additional N-terminal cysteine for coupling; also called Start 21 End 35
T5 peptide (looked up): AVSHWQQQSYLDSGI
Source text: as §1

The target of the next assay is T6, β-catenin peptide 25-39 (human, UniProt P35222).
T6 construct: synthetic 15-mer; additional N-terminal cysteine for coupling; also called Start 25 End 39
T6 peptide (looked up): WQQQSYLDSGIHSGA
Source text: as §1

For the next assay, the target named is T7, β-catenin peptide 29-43 (human, UniProt P35222).
T7 construct: synthetic 15-mer; additional N-terminal cysteine for coupling; also called Start 29 End 43
T7 peptide (looked up): SYLDSGIHSGATTTA
Source text: as §1

The target in another assay is T8, β-catenin peptide 37-51 (human, UniProt P35222).
T8 construct: synthetic 15-mer; additional N-terminal cysteine for coupling; also called Start 37 End 51
T8 peptide (looked up): SGATTTAPSLSGKGN
Source text: as §1

The next assay has as its target T9, β-catenin peptide 49-63 (human, UniProt P35222).
T9 construct: synthetic 15-mer; additional N-terminal cysteine for coupling; also called Start 49 End 63
T9 peptide (looked up): KGNPEEEDVDTSQVL
Source text: as §1

A further assay deals with T10, β-catenin peptide 53-67 (human, UniProt P35222).
T10 construct: synthetic 15-mer; additional N-terminal cysteine for coupling; also called Start 53 End 67
T10 peptide (looked up): EEEDVDTSQVLYEWE
Source text: as §1

For the next assay, the target named is T11, β-catenin peptide 57-71 (human, UniProt P35222).
T11 construct: synthetic 15-mer; additional N-terminal cysteine for coupling; also called Start 57 End 71
T11 peptide (looked up): VDTSQVLYEWEQGFS
Source text: as §1

A further assay has as its target T12, β-catenin peptide 61-75 (human, UniProt P35222).
T12 construct: synthetic 15-mer; additional N-terminal cysteine for coupling; also called Start 61 End 75
T12 peptide (looked up): QVLYEWEQGFSQSFT
Source text: as §1

A further assay deals with T13, β-catenin peptide 69-83 (human, UniProt P35222).
T13 construct: synthetic 15-mer; additional N-terminal cysteine for coupling; also called Start 69 End 83
T13 peptide (looked up): GFSQSFTQEQVADID
Source text: as §1

The next assay has as its target T14, β-catenin peptide 73-87 (human, UniProt P35222).
T14 construct: synthetic 15-mer; additional N-terminal cysteine for coupling; also called Start 73 End 87
T14 peptide (looked up): SFTQEQVADIDGQYA
Source text: as §1

The next assay has as its target T15, β-catenin peptide 77-91 (human, UniProt P35222).
T15 construct: synthetic 15-mer; additional N-terminal cysteine for coupling; also called Start 77 End 91
T15 peptide (looked up): EQVADIDGQYAMTRA
Source text: as §1

In another assay the target is T16, β-catenin peptide 81-95 (human, UniProt P35222).
T16 construct: synthetic 15-mer; additional N-terminal cysteine for coupling; also called Start 81 End 95
T16 peptide (looked up): DIDGQYAMTRAQRVR
Source text: as §1

A further assay has as its target T17, β-catenin peptide 89-103 (human, UniProt P35222).
T17 construct: synthetic 15-mer; additional N-terminal cysteine for coupling; also called Start 89 End 103
T17 peptide (looked up): TRAQRVRAAMFPETL
Source text: as §1

The target of assay [1] is T18, β-catenin peptide 101-115 (human, UniProt P35222).
T18 construct: synthetic 15-mer; additional N-terminal cysteine for coupling
T18 peptide (looked up): ETLDEGMQIPSTQFD
Source text: as §1

Assay [2] has as its target T19, β-catenin peptide 109-123 (human, UniProt P35222).
T19 construct: synthetic 15-mer; additional N-terminal cysteine for coupling; also called Start 109 End 123
T19 peptide (looked up): IPSTQFDAAHPTNVQ
Source text: as §1

For assay [3], the target named is T20, β-catenin peptide 113-127 (human, UniProt P35222).
T20 construct: synthetic 15-mer; additional N-terminal cysteine for coupling; also called Start 113 End 127
T20 peptide (looked up): QFDAAHPTNVQRLAE
Source text: as §1

Ends that are not written are not given here.

B1: BC2 nanobody (VHH)
VHH: QVQLVESGGGLVQPGGSLTLSCTASGFTLDHYDIGWFRQAPGKEREGVSCINNSDDDTYYADSVKGRFTIFMDNAKDTVYLQMNSLKPEDTAIYYCAEARGCKRGRYEYDFWGQGTQVTVSS
notes: Alpaca VHH, 122 aa; also called BC2-Nb; BC2 nanotrap (BC2-Nb immobilized on agarose/Sepharose beads); not shown: C-terminal 6xHis-tag added by the pHEN6 vector
As for B1, the binding result with AMEPDRKAAVSHWQQ is listed as “binds”; with β-catenin peptide 1-15, “no binding (tested: 1 µg/ml BC2-Nb)”; with β-catenin peptide 5-19, “no binding (tested: 1 µg/ml BC2-Nb)”; with β-catenin peptide 9-23, “no binding (tested: 1 µg/ml BC2-Nb)”; with β-catenin peptide 21-35, “no binding (tested: 1 µg/ml BC2-Nb)”; with β-catenin peptide 25-39, “no binding (tested: 1 µg/ml BC2-Nb)”. The binding result in the assay with β-catenin peptide 29-43, with β-catenin peptide 37-51, with β-catenin peptide 49-63, in the assay with β-catenin peptide 53-67, in the assay with β-catenin peptide 57-71 and with β-catenin peptide 61-75 was “no binding (tested: 1 µg/ml BC2-Nb)” in each case. In addition, the binding result (in the assay with β-catenin peptide 69-83; with β-catenin peptide 73-87; in the assay with β-catenin peptide 77-91; in the assay with β-catenin peptide 81-95; with β-catenin peptide 89-103; in [1]) was “no binding (tested: 1 µg/ml BC2-Nb)” each time. Moreover, the binding result in assay [2] and in assay [3] was “no binding (tested: 1 µg/ml BC2-Nb)” throughout.
